Experimental data from PMC12240809 (2025).
Like-named read-outs stand apart in the source and are kept apart here.

Columns and labels:
Test in all cases: MST
[1] = target: T1, FoTO1(ΔC), FoTO1 with the C-terminal α-helix deleted, fused to N-terminal mTurquoise2 (Taxus media)
[2] = target: T2, FoTO1 (facilitator of taxane oxidation), fused to N-terminal mTurquoise2 (Taxus media)
[3] = target: T1, FoTO1(ΔC), FoTO1 with the C-terminal …; remark: listed apart in the source
[4] = target: T2, FoTO1 (facilitator of taxane …); remark: listed apart in the source

Kd [1]	Kd [2]	Kd [3]	Kd [4]	Binder
> 10000 nM	610 nM	–	–	taxadiene synthase 2 (TDS2), soluble portion, 60 N-terminal amino acids removed (enzyme, RED-tris-NTA dye on the His tag (NanoTemper His-Tag labelling kit)) SGSPTKLATENANAVAESNLIPRLSANYHGDLWHHGVIQTLQTPYQESSSYQERAEELIVKIKDMFKAVEEGAISPSAYDTAWVARVPDGSEKPRFPQALNWLLHNQLQDGSWGLESHFMLSDRLLSTLNSVISLLVWKTGQQQVEQGTLFITENLKLLEGEDELPPDFEIIFPALLQKAKALGMSLPDHDLPFIKSLSVAREARLASYTDNNIPASMLNALEGLEEVIDWDKIMRFQMPCLYSIDLLERLSLVDNIEHLGIGRHFKQEIKVALDYVYRYWSERGIGLGRDSLIPDLNTTALGLRTLRAHGYNVSSEVLNNFKDENGRFFSSLGQTHVELRSMVNLLRASDLAFPDEPLMDDAKIFAEAYLRDALATRISTNTKLFKEIDYAVEYPWHMSIPRLEARSYIDVYDDDYTWQNKTLYRMSNLSNAYCLELAKLDFNIVQSLHQEELKLLTRWWKESGMADINFTRHRVAEVYFSSATFEPEYSSTRIAFTKIGCLQVLFDDMADIFATLDELRDFTEGVKRWDTSLIHKLPDCMQTCFRVWFNLMEEVNNDVSNVQGRDMLNHIRKPWELYFNCYVQEREWLDAGYIPTLEEYLKTYSISVGLGPCTLQPILLMGDIVKDDVVEKVHYPSNLFELVSLSWRLTNDTKTYQAEKARGQQASGIACYMKDNPGSTEEDAIKYICGVVDRALKEACFEYFKPADDVPMSCKSFIFNLRLCVQIFYKFIDGYGIANEEIKDYIRKVYIEPIQV
–	–	> 10000 nM	470 nM	taxadiene 5α-hydroxylase (T5αH), soluble portion, 47 N-terminal amino acids removed (enzyme, RED-tris-NTA dye on the His tag (NanoTemper His-Tag labelling kit)) SSLKLPPGKLGIPFIGESFIFLRALRSNSLEQFFDERVKKFGLVFKTSLIGHPTVVLCGPAGNRLILSNEEKLVQMSWPAQFMKLMGENSVATRRGEDHIVMRSALAGFFGPGALQSYIGKMNTEIQSHINEKWKGKDEVNVLPLVRELVFNISAILFFNIYDKQEQDRLHKLLETILVGSFALPIDLPGFGFHRALQGRAKLNKIMLSLIKKRKEDLQSGSATATQDLLSVLLTFRDDKGTPLTNDEILDNFSSLLHASYDTTTSPMALIFKLLSSNPECYQKVVQEQLEILSNKEEGEEITWKDLKAMKYTWQVAQETLRMFPPVFGTFRKAITDIQYDGYTIPKGWKLLWTTYSTHPKDLYFNEPEKFMPSRFDQEGKHVAPYTFLPFGGGQRSCVGWEFSKMEILLFVHHFVKTFSSYTPVDPDEKISGDPLPPLPSKGFSIKLFPRP
